In data set [1] the target is T1, IL-23 (p40/p19 heterodimer), endogenous from activated monocytes (Homo sapiens, UniProt P29460;Q9NPF7 SEQ:23-328,SEQ:20-189). As to the kind of experiment: cell_activity; STAT3 activation in PHA blasts, endogenous IL-23. As to the method:
Additionally, the ability of ARC20122 as well as its minimer ARC32225 to inhibit IL-23 dependent stimulation of STAT3 activity in PHA-Blast cells was tested. This assay utilized endogenous IL-23 produced from purified monocytes as described herein. […] ARC32225 performed slightly better than its parent clone with an IC₅₀ of 0.075 nM±0.030 nM. In both cases, the activity was markedly better than the control anti-p19 antibody, IC₅₀=0.69 nM±0.12 nM.
(§1) The ability of ARC32225 to inhibit endogenous IL-23 activation of PHA/IL-2 activated T-cells was tested by measuring levels of phospho-STAT3 (“phospho-STAT3 assay”). The binding of IL-23 to its receptor on activated T-cells stimulates several STAT pathways, including STAT3. Peripheral Blood Mononuclear Cells (PBMC) from fresh human blood were isolated by centrifugation in a Histopaque gradient and treated with PHA/IL-2 to enrich for T-cells and to upregulate IL-23 receptors. Cells were serum starved and treated with endogenous IL-23 for 15 minutes, and then lysed. Relative levels of phospho-STAT3 in IL-23 treated lysates, in the presence and absence of ARC32225 or a neutralizing p19 antibody, were measured by ELISA (Cell Signaling Technologies, Danvers, Mass.). Titrations of aptamer/antibody were used to generate inhibition curves from which IC₅₀ determinations were made.

Data set [2] deals with IL-23 (p40/p19 heterodimer), recombinant human (Homo sapiens, UniProt P29460;Q9NPF7 SEQ:23-328,SEQ:20-189). As to the kind of experiment: in presence of competitor tRNA (18,000-fold excess). The note with it: tags: R&D Systems 1290-IL-010/CF (catalogue number stated for the selection).
IL-23 (p40/p19 heterodimer), recombinant human, sequence (P29460 23-328, chain 1 of 2): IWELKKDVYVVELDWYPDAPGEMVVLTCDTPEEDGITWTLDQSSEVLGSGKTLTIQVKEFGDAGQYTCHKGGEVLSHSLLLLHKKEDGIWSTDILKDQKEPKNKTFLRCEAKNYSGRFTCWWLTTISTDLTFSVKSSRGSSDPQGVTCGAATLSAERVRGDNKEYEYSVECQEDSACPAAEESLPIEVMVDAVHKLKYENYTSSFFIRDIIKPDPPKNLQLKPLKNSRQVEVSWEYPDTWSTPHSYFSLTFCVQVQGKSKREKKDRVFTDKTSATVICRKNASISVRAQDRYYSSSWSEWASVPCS
IL-23 (p40/p19 heterodimer), recombinant human, sequence (Q9NPF7 20-189, chain 2 of 2): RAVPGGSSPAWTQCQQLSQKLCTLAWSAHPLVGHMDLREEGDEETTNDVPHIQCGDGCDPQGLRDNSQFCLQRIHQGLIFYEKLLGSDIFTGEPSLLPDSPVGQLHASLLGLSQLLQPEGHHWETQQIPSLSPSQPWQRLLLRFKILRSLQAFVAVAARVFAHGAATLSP
Data set [3] deals with T1, IL-23 (p40/p19 heterodimer), endogenous …. As to the kind of experiment: cell_activity; STAT3 inhibition assay; compensatory pair restores activity; IL-23 source not stated for this assay.
Data set [4] shares this target. As to the kind of experiment: cell_activity; STAT3 inhibition assay; disrupts G2-C30 loop-tail tertiary contact; IL-23 source not stated for this assay.
For data set [5] the target is unchanged. As to the kind of experiment: cell_activity; phospho-STAT3 ELISA in PHA/IL-2 T-cells, seven titrations; a separate comparison with ARC20122 gave 0.075±0.030 nM (p832). As to the method:
as §1
Percent inhibition was recorded for each concentration tested for all donors (data not shown). Individual IC50 for each donor were also recorded (data not shown).

T1 sequence (P29460 23-328, chain 1 of 2): as the sequence (P29460 23-328, chain 1 of 2) above
T1 sequence (Q9NPF7 20-189, chain 2 of 2): as the sequence (Q9NPF7 20-189, chain 2 of 2) above

B1: ARC20122 (ssRNA)
RNA: GGAGGGAAAAGUUAUCAGGCUUCUAUCGGGCGCCGCGUUUUCCCUGUGUUAGCCAUCGUCCGACGAGUAGGCUAGUCUGAUGCC
modifications: 2'-OMe A and G, 2'-F C and U (mA,mG,fC,fU)
Consider B1, for which the IC50 in data set [1] worked out at 0.26 nM. Also, the dissociation constant (Kd) in data set [2] was found to be 9.1 nM.

B2: ARC32225 G2A/C30U (ssRNA)
RNA: AAGGAAAUCAGGCUUUAUCGGGCGCCGCUUCCUGUGCCAUCGUCCGAGAGUAGGUAGUCUGU
modifications: mixed 2'-OMe and 2'-F as parent [mixed 2'-OMe and 2'-F as parent (positions not given)]
On to B2, for which, in data set [3], the IC50 was 0.5 nM.

B3: ARC32225 G2A (ssRNA)
RNA: AAGGAAAUCAGGCUUUAUCGGGCGCCGCUCCCUGUGCCAUCGUCCGAGAGUAGGUAGUCUGU
modifications: mixed 2'-OMe and 2'-F as parent [mixed 2'-OMe and 2'-F as parent (positions not given)]
On to B3, for which, in data set [4], inhibition was half-maximal at 108 nM (IC50). This lies in the sub-micromolar range.

B4: ARC32225 (ssRNA)
RNA: AGGGAAAUCAGGCUUUAUCGGGCGCCGCUCCCUGUGCCAUCGUCCGAGAGUAGGUAGUCUG
modifications: mixed 2'-OMe and 2'-F as printed (10 mA, 1 fA, 14 mG, 6 fG, 3 mC, 13 fC, 1 mU, 13 fU); 3' idT
The molecule B4 had a concentration for half-maximal inhibition (IC50) in data set [5] of 0.296 nM.

For the origin of these results see patent US20170166894A1, “APTAMERS FOR TOPICAL DELIVERY” (GlaxoSmithKline Intellectual Property Development Limited, published 2017).
